US20030206925A1 (Pfizer, published 2003)

Biological target: T1, measles virus nucleocapsid (N) protein, Edmonston wild-type (measles virus (Edmonston wild-type), UniProt P04851 1-525)
T1 sequence (looked up): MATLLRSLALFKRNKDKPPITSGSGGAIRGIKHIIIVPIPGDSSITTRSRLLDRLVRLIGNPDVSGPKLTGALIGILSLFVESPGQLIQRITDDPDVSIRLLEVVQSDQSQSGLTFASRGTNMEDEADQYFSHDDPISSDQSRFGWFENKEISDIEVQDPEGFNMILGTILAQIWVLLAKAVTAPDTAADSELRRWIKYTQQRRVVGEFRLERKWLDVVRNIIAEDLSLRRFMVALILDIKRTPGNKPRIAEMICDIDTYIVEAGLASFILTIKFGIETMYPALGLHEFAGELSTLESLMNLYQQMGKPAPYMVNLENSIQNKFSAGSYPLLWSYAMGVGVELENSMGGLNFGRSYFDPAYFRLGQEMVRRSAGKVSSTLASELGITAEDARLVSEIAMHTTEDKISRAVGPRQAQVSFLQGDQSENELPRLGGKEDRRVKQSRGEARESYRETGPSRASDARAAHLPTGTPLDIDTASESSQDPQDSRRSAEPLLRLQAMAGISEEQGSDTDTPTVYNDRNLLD
Test: separate experiment, method not described, data not shown

| Binder | binding result |
| --- | --- |
| measles virus V protein mutant haV-11 (deletion of amino acids 1-20 and 208-230) (other, Made in the pMV-haV-wt backbone by deletion mutagenesis) MAYPYDVPDYAAEPIGSLAIEEAMAAWSEISDNPGQERATCREEKAGSSGLSKPCLSAIGSTEGGAPRIRGQGPGESDDDAETLGIPPRNLQASSTGLQCYYVYDHSGEAVKGIQDADSIMVQSGLDGDSTLSGGDNESENSDVDIGEPDTEGYAITDRGSAPISMGFRASDVETAEGGEIHELLRLQSRGNNFPKLEGHRREISLIWNGDRVFIDRWCNPMCSKVTLGTIRARCTCGECPRVCEQCRTDTGVDTRIWYHNLPEIPE | no binding |
| measles virus V protein mutant haV-9 (deletion of amino acids 1-20) (other, Made in the pMV-haV-wt backbone by deletion mutagenesis) MAYPYDVPDYAAEPIGSLAIEEAMAAWSEISDNPGQERATCREEKAGSSGLSKPCLSAIGSTEGGAPRIRGQGPGESDDDAETLGIPPRNLQASSTGLQCYYVYDHSGEAVKGIQDADSIMVQSGLDGDSTLSGGDNESENSDVDIGEPDTEGYAITDRGSAPISMGFRASDVETAEGGEIHELLRLQSRGNNFPKLEKTLNVPPPPDPGRASTSETPIKKGHRREISLIWNGDRVFIDRWCNPMCSKVTLGTIRARCTCGECPRVCEQCRTDTGVDTRIWYHNLPEIPE | no binding |
